# Publication PMC3237428
# Target: β-catenin (endogenous in HEK293 cells) (human (endogenous in HEK293)) (UniProt P35222)
# Experiment: co-IP; reciprocal immunoprecipitation from stable HEK cell lysates with protein A/G agarose, anti-β-catenin antibody or rabbit antibody BsloC; western blot; 0.5% DDM
# Sequence of UniProt P35222 (P35222 whole entry): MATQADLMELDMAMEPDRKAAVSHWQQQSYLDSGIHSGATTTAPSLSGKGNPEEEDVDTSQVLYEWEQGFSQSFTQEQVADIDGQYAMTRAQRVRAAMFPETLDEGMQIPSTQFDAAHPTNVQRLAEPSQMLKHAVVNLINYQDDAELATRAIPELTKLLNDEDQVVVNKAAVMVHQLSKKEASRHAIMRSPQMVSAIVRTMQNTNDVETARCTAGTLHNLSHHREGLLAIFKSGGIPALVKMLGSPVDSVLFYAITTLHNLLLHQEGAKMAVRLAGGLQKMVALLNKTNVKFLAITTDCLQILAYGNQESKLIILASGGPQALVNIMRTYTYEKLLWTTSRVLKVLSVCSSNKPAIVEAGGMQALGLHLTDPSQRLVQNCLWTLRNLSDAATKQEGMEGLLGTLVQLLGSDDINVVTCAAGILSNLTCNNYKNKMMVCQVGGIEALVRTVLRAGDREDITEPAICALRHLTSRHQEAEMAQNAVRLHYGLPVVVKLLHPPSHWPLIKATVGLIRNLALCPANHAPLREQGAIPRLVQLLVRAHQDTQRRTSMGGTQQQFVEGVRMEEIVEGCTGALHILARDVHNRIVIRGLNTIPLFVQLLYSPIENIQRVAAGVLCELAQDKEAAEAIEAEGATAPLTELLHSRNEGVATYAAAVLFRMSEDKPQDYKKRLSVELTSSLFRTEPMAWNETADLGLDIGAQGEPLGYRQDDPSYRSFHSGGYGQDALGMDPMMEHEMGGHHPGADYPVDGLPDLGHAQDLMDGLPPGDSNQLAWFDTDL
substance,measurement,value
HSloΔS10 (HSlo deletion construct lacking the S10 region) (natural protein),"ratio of HSlo in β-catenin immunoprecipitates, wild type HSlo to HSloΔS10 (fold (wild type over HSloΔS10))",4
